According to CN114790240A (UNIV ZHENGZHOU; UNIV HENAN AGRICULTURAL, dated 2022):

Key:
[1] = biological target: SARS-CoV-2突变株B.1.617.2株假病毒 (刺突蛋白) (SARS-CoV-2); assay: cell-based or functional assay
[2] = biological target: SARS-CoV-2突变株B.1.1.529株假病毒 (刺突蛋白) (SARS-CoV-2); assay: cell-based or functional assay

Binder	假病毒中和活性IC50 [1] [ng/mL]	假病毒中和活性IC50 [2] [ng/mL]
单克隆抗体9D4 (antibody, V domains shown) VH: QVHLQQSGPELVKPGASVKISCKSSGYALTDYYINWVKQRPGQGLEWIGWIFPGNDYTYFNEKFKDKATLTLDKSSRTAYMLLSSLTTEDSAVYFCARYGDGNYVYFDYWGQGTSLTVSS VL: ETVLIQSPALMAASPGEKVTITCSVSSSISSSNLHWYQQKSGNSPKPWIYGTSNLASGVPVRFSGSGSGTSYSLTISSMEAEDAATYYCQQWSSYPLTFGAGTKLELK	155	188
单克隆抗体8H9 (antibody, V domains shown) VH: QIQLVQSGPELKKPGETVKISCKASGYTFTTYGMSWVKQTPGKGLKWMGWINTYSGVPTYADDFKGRFAFSLETSASTASLQINNLKNEDTATYFCARYDPTAPDYAMDYWGQGTSVTVSS VL: NIVMTQSPKSMSMSVGERVTLSCKASENVGTYVSWYQQKPEQSPKLLIYGASNRYTGVPDRFTGSGSATDFTLTISSVQAEDLADYHCGQSYIYPLTFGAGTNLELK	56.6	92.9
